Test results published in patent US20240343803A1 (SHANDONG SIMCERE BIOPHARMACEUTICAL, published 2024).

Tests used:
[1] = target: T1, Fusion protein of extracellular domain of human TIGIT and His-tag (human TIGIT ECD-his) (human); experiment: BIAcore; KD ratio to TIGIT-CHI-002
T1 chain: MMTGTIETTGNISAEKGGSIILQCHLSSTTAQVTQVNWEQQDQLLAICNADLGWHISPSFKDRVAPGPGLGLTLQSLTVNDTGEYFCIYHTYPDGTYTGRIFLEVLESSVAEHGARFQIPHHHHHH

[2] = target: T2, cynomolgus monkey PVRIG (Novoprotein, Cat NO. C09B) (cynomolgus monkey, UniProt A0A2K5WVV8 41-171); experiment: ELISA, coated cynomolgus monkey PVRIG
T2 construct: bought reagent; also called cynomolgus monkey PVRIG recombinant protein
T2 sequence: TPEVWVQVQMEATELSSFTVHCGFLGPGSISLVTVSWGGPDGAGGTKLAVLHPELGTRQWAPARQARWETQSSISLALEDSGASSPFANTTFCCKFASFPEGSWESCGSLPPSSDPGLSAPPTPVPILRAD

[3] = target: T3, full-length human TIGIT on CHO-K1 cells (CHO-K1 human TIGIT) (human, UniProt Q495A1 22-244); experiment: FACS, competition: Bio-CD155-His to CHO-K1 human TIGIT
T3 construct: NCBI XP_024309156.1; entry includes the signal peptide; also called high expression strain 1D2; medium expression strain 2D10
T3 sequence: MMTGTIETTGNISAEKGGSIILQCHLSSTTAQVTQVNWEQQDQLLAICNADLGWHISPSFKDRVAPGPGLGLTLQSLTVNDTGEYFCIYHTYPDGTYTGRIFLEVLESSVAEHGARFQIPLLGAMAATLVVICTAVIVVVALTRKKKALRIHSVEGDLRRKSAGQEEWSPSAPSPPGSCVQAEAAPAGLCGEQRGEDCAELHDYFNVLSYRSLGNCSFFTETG
Description: The collected cells were washed once with PBS (Hyclone, CAT #SH30256), resuspended to 2×10⁵/40 μL with 1% BSA-PBS. The antibodies were diluted to 210 nM with 1% BSA-PBS (diluted by 3-fold serial dilution for 12 concentration points). […] The 40 μL cells were then mixed with 40 μL diluted antibodies and 40 μL diluted Bio-CD155-His, and then incubated at 4° C. for 60 minutes. The cells were washed twice with PBS, resuspended with APC labeled streptavidin (dilution ratio 1:1700, Biolegend, 405243), 100 μL/well, and incubated at 4° C. for 40 minutes. The cell samples were washed twice with PBS, resuspended with 1% BSA-PBS, 100 μL/well and then analyzed by flow cytometry (BD, Canto II). […] [0300] (d) The effect of anti-TIGIT chimeric antibodies blocking the interaction between TIGIT ECD-mFc and CHO-K1 CD155 detected by FACS

B1: TIGIT-002-H4L3 (antibody, V domains shown)
VH: EVQLQESGPGLVKPSETLSLTCAVSGYSITSDSWNWIRQPPGKKLEYIGYISYSGNTYYNPSLKSRVTISRDTSKNQFSLKLSSVTAADTAVYYCARLDFSNYGGAVDYWGQGTTVTVSS
VL: DIVMTQSPDSLAVSLGERATINCKASQNVRTAVAWYQQKPGQSPKLMIYSASYRYTGVPDRFSGSGSGTDFTLTISSLQAEDVAVYYCQQYYTTPWTFGGGTKVEIK
notes: Humanized anti-TIGIT antibody
[1]
  Fold change vs chimeric antibodies (KD): 1.26 fold

B2: SRF813-hIgG1 (antibody, V domains shown)
VH: QVQLVQSGAEVKKPGSSVKVSCKASGGTFSSAAISWVRQAPGQGLEWMGNIIPIVGIANYAQKFQGRVTITADESTSTAYMELSSLRSEDTAVYYCARDTGRGYTRHFWFDPWGQGTLVTVSS
VL: DIQMTQSPSSLSASVGDRVTITCRASQSISSYLNWYQQKPGKAPKLLIYAASSLQSGVPSRFSGSGSGTDFTLTISSLQPEDFATYYCQQSDILYTFGGGTKVEIK
notes: human IgG1 format by its name
[2]
  EC50 (read off the curve): ~0.06 nM

B3: RG6058-hIgG1 (antibody, V domains shown)
VH: EVQLQQSGPGLVKPSQTLSLTCAISGDSVSSNSAAWNWIRQSPSRGLEWLGKTYYRFKWYSDYAVSVKGRITINPDTSKNQFSLQLNSVTPEDTAVFYCTRESTTYDLLAGPFDYWGQGTLVTVSS
VL: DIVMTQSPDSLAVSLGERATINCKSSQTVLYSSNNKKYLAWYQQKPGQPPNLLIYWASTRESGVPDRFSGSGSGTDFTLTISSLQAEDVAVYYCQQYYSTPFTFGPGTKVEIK
notes: human IgG1 format by its name; also called Roche RG6058; control antibody RG6058
[3]
  IC50: 0.388 nM
